Source: patent US20260159606A1 (VIB VZW, published 2026)
Changes are numbered by the printed parent chain.

T1: hPIV-3 hemagglutinin-neuraminidase (HN), expressed on transfected HEK293T cells (human parainfluenza virus 3 (hPIV-3), UniProt P08492 1-572)
T1 construct: also called hPIV-3 HN; HN3
T1 chain: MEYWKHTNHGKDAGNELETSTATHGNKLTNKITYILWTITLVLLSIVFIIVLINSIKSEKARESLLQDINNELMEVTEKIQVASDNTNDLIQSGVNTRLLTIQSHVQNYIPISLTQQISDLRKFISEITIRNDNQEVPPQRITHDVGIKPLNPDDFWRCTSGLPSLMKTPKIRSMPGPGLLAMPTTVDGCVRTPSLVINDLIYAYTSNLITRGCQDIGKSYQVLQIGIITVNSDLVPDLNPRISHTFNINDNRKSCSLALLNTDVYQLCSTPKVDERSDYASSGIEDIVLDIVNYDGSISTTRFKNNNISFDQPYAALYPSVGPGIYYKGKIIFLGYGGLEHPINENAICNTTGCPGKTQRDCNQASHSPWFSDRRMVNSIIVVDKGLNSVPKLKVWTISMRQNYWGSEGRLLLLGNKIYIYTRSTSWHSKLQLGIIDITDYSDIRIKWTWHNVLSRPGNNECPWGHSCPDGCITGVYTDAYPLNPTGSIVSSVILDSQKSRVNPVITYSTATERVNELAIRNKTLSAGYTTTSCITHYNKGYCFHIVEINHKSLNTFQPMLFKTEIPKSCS

T2: D275N- and R277T-mutant hPIV-3 HN, expressed on transfected HEK293T cells (human parainfluenza virus 3 (hPIV-3), UniProt P08492 1-572)
T2 construct: also called mut HN3
T2 chain: T1 chain with D275N, R277T

B1: bivalent VHH A2R3-60-60 (VHH)
chain: QVQLQESGGGLVQPGGSLRLDCAASGTTVSINGMGWYRQAPGKQREFVALSTTGGVTNYADSVKGRFTISMDNAKKTVALQMNSLKPEDTAVYYCNAVASPSWGLYDDYWGQGTQVTVSSGGGGSGGGGSGGGGSQVQLQESGGGLVQPGGSLRLDCAASGTTVSINGMGWYRQAPGKQREFVALSTTGGVTNYADSVKGRFTISMDNAKKTVALQMNSLKPEDTAVYYCNAVASPSWGLYDDYWGQGTQVTVSS
notes: also called bivalent A2R3-60
B2: VHH A2R3-59 (VHH)
VHH: QVQLQESGGGLVQPGGSLRLSCAASGSISGINGMGWYRQAPGKQRELVAAITSGGSTNYADSVKGRFTISRDNAKNTVDLQMNSLQPEDTAVYYCYVSSTPSWGLYDDYWGQGTQVTVSS
notes: also called 2AR3-59
B3: humanized A2R3-60-60 bivalent construct version 1 (VHH)
chain: DVQLVESGGGLVQPGGSLRLSCAASGTTVSINGMGWYRQAPGKQREFVALSTTGGVTNYADSVKGRFTISRDNAKNTVYLQMNSLRPEDTAVYYCNAVASPSWGLYDDYWGQGTLVTVSSGGGGSGGGGSGGGGSEVQLVESGGGLVQPGGSLRLSCAASGTTVSINGMGWYRQAPGKQREFVALSTTGGVTNYADSVKGRFTISRDNAKNTVYLQMNSLRPEDTAVYYCNAVASPSWGLYDDYWGQGTLVTVSS
notes: also called A2R3-h60-60
B4: humanized A2R3-59-59 bivalent construct version 1 (VHH)
chain: DVQLVESGGGLVQPGGSLRLSCAASGSISGINGMGWYRQAPGKQRELVAAITSGGSTNYADSVKGRFTISRDNAKNTVYLQMNSLRPEDTAVYYCYVSSTPSWGLYDDYWGQGTLVTVSSGGGGSGGGGSGGGGSEVQLVESGGGLVQPGGSLRLSCAASGSISGINGMGWYRQAPGKQRELVAAITSGGSTNYADSVKGRFTISRDNAKNTVYLQMNSLRPEDTAVYYCYVSSTPSWGLYDDYWGQGTLVTVSS
notes: also called A2R3-h59-59
B5: VHH A2R3-60 (VHH)
VHH: QVQLQESGGGLVQPGGSLRLDCAASGTTVSINGMGWYRQAPGKQREFVALSTTGGVTNYADSVKGRFTISMDNAKKTVALQMNSLKPEDTAVYYCNAVASPSWGLYDDYWGQGTQVTVSS
notes: also called 2AR3-60
B6: bivalent VHH A2R3-55 (VHH)
chain: QVQLQESGGGLVQAGGSLRLSCAASGSIDRIDAMGWSRQAPGKQRELVATITTGGITNYAVSVKGRFTISRDNAKNTVYLQMNSLKPEDTAVYYCNAQGAPSWGLYEDYWGQGTQVTVSSGGGGSGGGGSGGGGSQVQLQESGGGLVQAGGSLRLSCAASGSIDRIDAMGWSRQAPGKQRELVATITTGGITNYAVSVKGRFTISRDNAKNTVYLQMNSLKPEDTAVYYCNAQGAPSWGLYEDYWGQGTQVTVSS
notes: also called bivalent A2R3-55
B7: humanized A2R3-60-Fc construct version 1 (Fc fusion)
chain: DVQLVESGGGLVQPGGSLRLSCAASGTTVSINGMGWYRQAPGKQREFVALSTTGGVTNYADSVKGRFTISRDNAKNTVYLQMNSLRPEDTAVYYCNAVASPSWGLYDDYWGQGTLVTVSSGGGGSGGGGSDKTHTCPPCPAPEAAGGPSVFLFPPKPKDTLMISRTPEVTCVVVDVSHEDPEVKFNWYVDGVEVHNAKTKPREEQYNSTYRVVSVLTVLHQDWLNGKEYKCKVSNKALGAPIEKTISKAKGQPREPQVYTLPPSRDELTKNQVSLTCLVKGFYPSDIAVEWESNGQPENNYKTTPPVLDSDGSFFLYSKLTVDKSRWQQGNVFSCSVMHEALHNHYTQKSLSLSPG
notes: also called A2R3-h60-Fc; h60-Fc
B8: humanized A2R3-59-Fc construct version 1 (Fc fusion)
chain: DVQLVESGGGLVQPGGSLRLSCAASGSISGINGMGWYRQAPGKQRELVAAITSGGSTNYADSVKGRFTISRDNAKNTVYLQMNSLRPEDTAVYYCYVSSTPSWGLYDDYWGQGTLVTVSSGGGGSGGGGSDKTHTCPPCPAPEAAGGPSVFLFPPKPKDTLMISRTPEVTCVVVDVSHEDPEVKFNWYVDGVEVHNAKTKPREEQYNSTYRVVSVLTVLHQDWLNGKEYKCKVSNKALGAPIEKTISKAKGQPREPQVYTLPPSRDELTKNQVSLTCLVKGFYPSDIAVEWESNGQPENNYKTTPPVLDSDGSFFLYSKLTVDKSRWQQGNVFSCSVMHEALHNHYTQKSLSLSPG
notes: also called h59-Fc; A2R3-h59-Fc
B9: VHH A2R3-57 (VHH)
VHH: QVQLQESGGGLVQPGGSLRLSCAASGSIFSTDAMGWYRQPPGKQRELVATITSGGSTNYVDSVKGRFTISRDNAKNTVYLQMNSLKPEDTAVYYCALHQTTGWGLYNDYWGQGTQVTVSS
notes: also called 2AR-57
B10: bivalent VHH A2R3-57-57 (VHH)
chain: QVQLQESGGGLVQPGGSLRLSCAASGSIFSTDAMGWYRQPPGKQRELVATITSGGSTNYVDSVKGRFTISRDNAKNTVYLQMNSLKPEDTAVYYCALHQTTGWGLYNDYWGQGTQVTVSSGGGGSGGGGSGGGGSQVQLQESGGGLVQPGGSLRLSCAASGSIFSTDAMGWYRQPPGKQRELVATITSGGSTNYVDSVKGRFTISRDNAKNTVYLQMNSLKPEDTAVYYCALHQTTGWGLYNDYWGQGTQVTVSS
notes: also called bivalent A2R3-57

How the values were obtained:
[1] = target: HN of hPIV-3-GFP virus (on virions and on hPIV-3-infected cells) (human parainfluenza virus 3 (hPIV-3), UniProt P08492 1-572); experiment: cell-based or functional assay
[2] = target: T3, recombinant hPIV-1 HN-dGCN4 (human parainfluenza virus 1 (hPIV-1), UniProt P16071 138-575); experiment: ELISA, HN protein coated (50 ng), 1/3 dilution series (FIG. 18)
T3 construct: domain: head domain; also called hPIV-1 HN linked to dGCN4; not shown: strep-tag II

[3] = target: T4, recombinant hPIV-1 HN-tetraGCN4 (human parainfluenza virus 1 (hPIV-1), UniProt P16071 138-575); experiment: as above
T4 construct: domain: head domain; also called hPIV-1 HN linked to tetraGCN4; not shown: strep-tag II

[4] = target: T5, recombinant hPIV-3 HN-dGCN4 (human parainfluenza virus 3 (hPIV-3), UniProt P08492 136-572); experiment: as above
T5 construct: domain: head domain; also called hPIV-3 HN linked to dGCN4; not shown: strep-tag II

[5] = target: T1, hPIV-3 hemagglutinin-neuraminidase …; experiment: flow cytometry on transfected HEK293T cells, 10 µg/ml (FIG. 16A)
[6] = target: T2, D275N- and R277T-mutant hPIV-3 HN, …; experiment: flow cytometry on transfected HEK293T cells, VHH 1 or 0.1 µg/ml (FIG. 11C)
[7] = target: T1, hPIV-3 hemagglutinin-neuraminidase …
[8] = target: T6, hPIV-3 fusion protein (F), expressed on transfected HEK293T cells (human parainfluenza virus 3 (hPIV-3), UniProt P06828 19-539); experiment: flow cytometry on transfected HEK293T cells (FIG. 4)
T6 construct: whole, on cells

[9] = target: T2, D275N- and R277T-mutant hPIV-3 HN, …; experiment: flow cytometry on transfected HEK293T cells (FIG. 11C)

| Binder | fold higher potency of hPIV-3-GFP neutralization than the monovalent counterpart [1] [fold] | binding result [5] | binding result [6] | fold reduction of binding at 500 µg/ml of zanamivir [7] [fold] | binding result [8] | binding result [9] | other results |
| --- | --- | --- | --- | --- | --- | --- | --- |
| B1 | ~7.5 | binds | binds |  |  |  | EC50 [2]: 167 µg/mL; EC50 [3]: 50 µg/mL; EC50 [4]: 0.02 µg/mL |
| B2 |  |  | binds | 2.4 | no binding (tested: 1 µg/ml) |  |  |
| B3 |  | binds |  |  |  |  |  |
| B4 |  | binds |  |  |  |  |  |
| B5 |  |  | binds | 1.5 | no binding (tested: 1 µg/ml) |  |  |
| B6 | ~50 |  |  |  |  | no binding (tested: 1 or 0.1 µg/ml) |  |
| B7 |  | binds |  |  |  |  | EC50 [2]: 32 µg/mL; EC50 [3]: 71 µg/mL; EC50 [4]: 0.018 µg/mL |
| B8 |  | binds |  |  |  |  |  |
| B9 |  |  |  | ~5 | no binding (tested: 1 µg/ml) | no binding (tested: 1 or 0.1 µg/ml) |  |
| B10 | ~150 |  |  |  |  | no binding (tested: 1 or 0.1 µg/ml) |  |
